Substrate in data set [1]: CCn1c(=NN=c2sc3cc(S(=O)(=O)O)ccc3n2CC)sc2cc(S(=O)(=O)O)ccc21
The experiment in a line: purified protein. Type of data set: biochemical, Metuloidea murashkinskyi. Conditions: air-saturated 0.1 M Na-citrate-phosphate buffer, pH 5.5, 23 °C, O2 co-substrate, free enzyme.

Substrate in data set [2]: CCn1c(=NN=c2sc3cc(S(=O)(=O)O)ccc3n2CC)sc2cc(S(=O)(=O)O)ccc21
The experiment in a line: purified protein. Conditions: air-saturated 0.1 M Na-citrate-phosphate buffer, pH 5.5, 23 °C, O2 co-substrate, free enzyme. Type of data set: biochemical, Antrodiella faginea.

B1: SmL (Lac2), Steccherinum murashkinskyi laccase (Metuloidea murashkinskyi) (protein)
chain: AQIGPVTDLHITNANISPDGFSRPAVLAGGTFPGPTIAGNTGDNFQITVFNDLTDPSMLTDTSIHWHGLFQKGTNWADGPAFVTQCPIITGQSFDYNFNVPGQAGTFWYHSHLSTQYCDGLRGPFVVYDPNDPNASLYDVDDDTTIITLADWYHTLAQQEPIGAAITADATLINGLGRSFTNTTASPLSVITVQSGKRYRMRLVSISCDPNYLFSIDGHDMTIIEVDGVNSQQLTVDQIQIFAAQRYSFVLNANQPVGNYWIRAQPNSGGQGFDGGINSAILRYEGATVEDPTTTAPTTFSNPLVETDLHPLADLGVPGQPFRGGADDPLVLNLAFANGRFSIDGVSFVPPTVPVLLQILSGAQNAQDLLPAGSVISLPSNSVIEVALPAGAAGGPHPFHLHGHNFAVVQSANNATPNYVNPIWRDTVSIGGTGDNVTIRFTTNNPGPWFLHCHIDWHLEAGFAIVFAEDIPDTASANPVPQAWSDLCPAYDQAHNISTATRQDFQILCICGILHVNFRQEERCGIS
notes: native secreted enzyme purified from culture liquid
In the case of B1, in “purified protein [1]”, the Km was found to be 71.7 ± 2.9 µM, the kcat is 33.3 ± 1.4 s⁻¹ and the kcat/Km was 460000 M⁻¹ s⁻¹.

B2: AfL (LacA), Antrodiella faginea laccase (Antrodiella faginea) (protein)
chain: AIGPVADLKIVNANIQPDGFTRPAVLAGGTFPGPLIKGNKGDNFQLNVIDELENEDMLKSTSIHWHGFFQHGTNWADGPAFVNQCPITTGHSFLYNFHVPDQAGTFWYHSHLSTQYCDGLRGPMVVYDPHDPLKQLYDVDDESTVMTLADWYHTLARQEPPGPVTPDSTLINGLGRAPGQTTPSELAVLTVKRGTRYRIRLINISCEPNYHYSIDNHDLTVIEADGVSTQSLTVSSLTIFAGQRYSFILNANQPVGNYWIRAQPNDAADVTFNGGINSAILRYEGAPVAEPNTTAGPDNTPLLEVNIRPFVFTPVPGQPHAGGADFVKNLLFSFNGTNFQVDNVSFVPPTVPILLQILSGAHTAQDLMPAGSIIPLPKNAVIEFSMPGGVVGGGHPIHLHGHNFWVIRSANSSVYNYNDPVIRDVVNIGTTGDNVTIRFETNNPGPWFLHCHIDWHLDLGFAVVMAEDIPDAAAANPVPAAWNELCPLYDALTPGNQ
notes: as for B1
Take B2: in the data set “purified protein [2]”, the Michaelis-Menten constant (Km) came to 4.9 ± 0.4 µM, the catalytic constant (kcat) was found to be 32.7 ± 1.1 s⁻¹ and the specificity constant (kcat/Km) worked out at 6.67e+06 M⁻¹ s⁻¹.

For the origin of these results see article PMC12347638, “Fungal Laccases with High and Medium Redox Potential: Is the T1 Center Potential a Key Characteristic of Catalytic Efficiency in Heterogeneous and Homogeneous Reactions?” (International Journal of Molecular Sciences, 2025).
